Assay: yeast display, Sf9 membrane polyspecificity reagent, FACS + sequencing; frameworks hold sequencing errors
How it was run: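 Galactose-induced (36–48 hours) yeast carrying a synthetic nanobody display library were exposed to 10% biotinylated, detergent-solubilized Sf9 membrane reagent at 4 °C for 1 hour. FACS followed streptavidin microbead enrichment, using low and high (top ~1%) gates for expression (anti-HA) and reagent binding (streptavidin). Colony PCR, MiSeq 2 × 250 sequencing and CDR-length filtering followed. Labels for polyreactivity reflect the gate of origin.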

| Sequence | polyreactivity (PSR sort gate) |
| --- | --- |
| QVQLVESGGGLVQAGGSLRLSCAASGSTFSLNDMGWYRQAPGKERQLVAAITGRGTRTYYADSVKGRFTISRDNAKNNVYLQMNSLKPEDTAVYYCAIDYPRGSPYGYNYWVQGTQVTVSS | high polyreactivity |
| QVQLVESGGGLVQAGGSLRLSCAASGFTFYYYAMGWYRQAPGKERELVAAISTRDGNTYYADSVKGRFTISRDNAKNTVYLQMNSLKPEDTAVYYCAADYFRYYPYDYWGQGTQVTVSS | low polyreactivity |
| QVQLVESGGGLVQAGGSLRLSCAASGSIFFLYGMGWYRQAPGKERELVAAIRKRGSSTYYADSVKGRFTISRDNAKNTVYLQMNSLKPEDTAVYYCAAAALGYYGYRGFDYWGQGTQVTVSS | low polyreactivity |
| QVQLVESGGGLVQAGGSLRLSCAASGFILYFNAMGWYRQAPGKDRELVAVISCTGVRTNYADSVKGRFTISRDNAKNTVYLQMNSLKPEDTAVYYCAAGYYSYRPRDYWGQGTQVTVSS | low polyreactivity |
| QVQLVESGGGLVQAGGSLRLSCAASGSTFSSYAMGWYRPAPGKERELVARITSGGSTYYADSVKGRFTISRDNAKNTVYLQMNSLKPEDTAVYYCAARGYYYRSRVSQFKYDYWGQGTQVTVSS | high polyreactivity |
| QVQLVESGGGLVQAGGSLRLSCADSGYIFDAYAMGWYRQAPGKERELVAAIDIGGSTYYADSVKGRFTISRDNAKNTVYLQMNSLKPEDTAVYYCAEWFYFDQWDYAREYWGQGTQVTVSS | low polyreactivity |
| QVQLVESGGGLVQAGGSLRLSCAASGRIFYSNVMGWYRQAPGKERELVAAITSGGSTYYADSVKGRFTISRDNAKNTVYLQMNSLKPEDTAVYYCAARVAFRPRGYIRYYYWGQGTQVTVSS | high polyreactivity |
| QVQLVESGGGLVQAGGSLRLSCAASGRTFWYYTMGWYRQAPGKERELVAAISRSGGSTYYADSVKGRFTISRDNAKNTVYLQMNSLKPEDSAVYFCAAGVQSSVYPYYRFDYWGQGTQVTVSS | high polyreactivity |
| QVQLVESGGGLVQAGGSLRLSCAASGRIFEDNGMGWYRQAPGKEREFVATISWDGDRTYYADSVKGRFTISRDNAKNTVYLQMNSLKPEDTAVYYCNADLPLWPVRGYEYWGQGTQVTVSS | low polyreactivity |
| QVQLVESGGGLVQAGGSLRLSCAASGSTFDSYAMGWYRQAPGKERELVASITSNDGSTSYADSVKGRFTISRDNAKNTVYLQMNSLKPEDTAVYYCATTFQYYWFSLYDYWGQGTQVTVSS | low polyreactivity |
| QVQLQESGGGLVQAGGSLRLSCAASGTLSPLPAMGWYRQAPGKEREFVPGIDTGAITNYADSLKGRFTISRDNAKYTVYLQMNSLKPEDTAVYYCAVFPAAYLYYERYDTYWGQGTQVTVSS | low polyreactivity |
| QLQLVESVGGLVQAGGSLRLSCAPSGSTFYWNAMGWYRQAPGKERELVAVITSSGTRTYYADSVKGRFTISRDNAKNTVYLQMNSLKPEDTEVDYCAKRETYTGPNSRYGQWKKVYYWGQGTQVTVSS | low polyreactivity |
| QVQLVESGGGLVQAGGSLRLSCAASGNTFTKYAMGWYRQAPGKERELVADITIGGSTYYADSVKGRFTISRDNAKNTVYLQMNSLKPEDTAVYYCNADVVVQYYFTYYRVFTYDYWGQGTQVTVSS | low polyreactivity |
| QVQLVESGGGLVQAGGSLRLSCAASGSIFPWYAMGWYRQAPGKERELVAAITISGGSTHYADSVKGRFTISRDNAKNTVYLQMNSLKPEDTAVYYCATPRYPSYEYWGQGTQVTVSS | low polyreactivity |
| QVQLVESGGGLVQAGGSLRLSCAASEFTFLLYAMGWYRQAPGKERELVAAISRTGGSTYYADSVKGRFTISRDNAKKTVYLQMNSLNPEDTAVYYCNAAISRAWVSYYGSSSRYDYWGQGTQVTVSS | low polyreactivity |
| QVQLVESGGGLVQAGGSLRLSCAASGRLLPIYAMGWYRQAAGKERELVATISWTSDSTYYADSVKGRFTISRDNAKNTVYLQMNSLKPEDTAFYYCAREYTYNYASTVIYDHWGQGTQVTVSS | low polyreactivity |
| QVQLVESGGGLVQAGGSLRLSCAASGSIFVQNAMGWYRQAPGTERELVAVINSGDSTNYADSVKGRFTISRDNAKNTVDLQMNSLKPEDTAVYYCAVDDVSYYYLRAYNYELSWYCSGLDYWGQGTQVTVSS | low polyreactivity |
| QVQLVESGGGLVQAGGSLRLSCAASGRIFWANAMGWYRQAPGKERELVATISRSGGTTYYADSVKGRFTISRDNAKNTVYLQMNSLKPEATAVYYCAAEDWSLYDYGDRLWYSPYYYWGQGTQVTVSS | high polyreactivity |
| QVQLVESGGGLVQAGGSLRLSCAASGSILQSYAMGWYRQAPGKERELVAAITYRGGRTYYADSVKGRFTISRDNAKNTVYLQMNSLKPEDTAVYYCAADQQRSIDAPYGYWGQGTQVTVSS | low polyreactivity |
| QVQLEESGGRLVQAGGSLRLSCAASGSTFQTYAMGWYRQAPGKERELVAAITWRGGSTYYADSVKGRFTISRDNAKNTVYLQMNSLKPEDTAVYYCAAKWHGAHDHRAAYESWGQGTQVTVSS | low polyreactivity |
| QVQLVESGGGLVQAGGSLRLSCAASGRIFYYNDMGWYRQAPGKERELVAAITWTDDGTYYADSVKGRFTISRDNAKNTVYLQMNSLKPEDTAVYYCAAESFYGFEYWGQGTQVTVSS | low polyreactivity |
| QVQLVESGGGLVQAGGSLRLSCAASGRIFRGNAMGWYRQAPGKERQLVADINRSGGSTYYADSVKGRFTISRDNAKNTVYLQMNSLKPEDTAVYYCNAKYRVPYAVGGDYGYWGQGTQVTVSS | high polyreactivity |

| Sequence | polyreactivity (PSR sort gate) |
| --- | --- |
| QVQLVESGGGLVQAGGSLRLSCAASGSTFVGYAMGWYRQAPGKERELVAAISKSGGRTYYADSVKGRFTISRDNAKNTVYLQMNSLKPEDTAVYYCAAYFTRYDFRWHTYYYWGQGTQVTVSS | low polyreactivity |
| QVQLVESGGGLVQAGGSLRLSCAASGFIFEDYAMGWYTQATGKERELVAAITWRGGRTYYADSVKGRFTISRDNAKNTVYLQMNSLKPEDTAVYYCRPQVYSYASRYGYWGQGTQVTVLS | low polyreactivity |
| QVQLVESRGGLVQAGGSLRLSCPASGFTFVNYAMGWYRQAPGKERELVAAIRRSGSRTYYADSVKGRFTISRDNAKNTVYLQMNSLKPEVTAVYYCNAPVVYFWPLNFDYWGQGTQVTVSS | low polyreactivity |
| QGHLVESGGRLVQAGGSLRLSCAASGRIFPTYTMGWYRQAPWKERELVAAIRRGGGRTYYADSVKGRFTISRDNAKKTVYLQMNSLKPEDTAVYYCAAPFYRQSLIEYDYWGQGTQVTVSS | high polyreactivity |
| QVQLVESGGGLVQAGGSLRLSCAASGRTFYYYTMGWYRQAPGKERELVAAIRGSGRTYYADSVKGRFTISRDNAKNTVYLQMNSLKPEDTAVYYCAAETGYTIRYDYWGQGTQVTVSS | high polyreactivity |
| QVQLVESGGGLVQAGGSLRLSCAASGSTLPGNVMAWYRQAPGKERELVAAISKRGASTYYADSVKGRFTISRDNAKNTVYLQMNSLKPEDTAVYYCATRTRGSVFRFDYWGQGTQVTVSS | high polyreactivity |
| QVKLVESGGGLVQAGGSLRISSAASGSTFYYYAMGWYRQAPGKESEFVASISSRGTSKYYADSVKGRFTISRDNAKNTVYLQMNSLKPEDTAVYYCAARGWCPTRAYDYWGQGTQVTVSS | high polyreactivity |
| QVQLVESGGGIVQAGGSLRLSCAASGSISSAYAMGWYRQAPGKERELVAVITSGGSTNYADSVKGRFTISRDNAKNTVYLQMNSLKQEDTAVYYCATPVASVTGYDYWGLGTQVTVSS | low polyreactivity |
| QVQLVESGGGLVQAGGSLRLSCAASGFISSENAMGWYRQAPGKERELVAAISSGGSTNYADSVKGRFTISRDNAKNTVYLQMNSRKPEDTAVYYCAATLPGWYNEDDSWGQGTQVTVSS | low polyreactivity |
| QVQLVESGGGLVQAGGSLRLSCAASGRIFGGNAMGWYRQAPAKERELVAAISKRGGSTYYADSVKGRFTISRDNAKNTVYLQMNSLKPEDTAVDYCAATAYADQGLDYGYWGQGTQVTVSS | high polyreactivity |
| QVQLVESGGGLVQAGASLRLSCAASGSISKSYAMGWYRQAPGKERELVAAISSRGGSTYADSVKGRFTISRDNAKNTVYLQMNSLKPEDTAVYYCAATNYGTFWGGQSERYDYWGQGTQVTVSS | low polyreactivity |
| QVQLVESGGGLVQAGGSLRLSCAASGRIFSQYAMGWYRQAPGKERELVAAISRRTGSTYYADSVKGRFTISRDNAKNTVYLQMNSLKPEDTAVYYCNKARLGWSYRQDDYWGQGTQVTVSS | high polyreactivity |
| QVQLVESGGGLVQAGGSLRLSCAASGRICDYNVMGWYRQAPGKERELVADITSSGGSTYYADSVKGRFTISRDNAKNTVYLQMNSLKPEDTAVYYCYISYFTFYDDFYYWGQGTQVTVSS | low polyreactivity |
| QVQLVESGGGLVQAGGSLRLSCAASGRTFGKNAMGWYRQAPGKERELVAAISTSGGRTYYADSVMGRFTISRDNAKNTVYLQMNSLIPEDPAVYYCAAVLYDTRPVYGCESWGQGTQVTVSS | high polyreactivity |
| QVQLVESGGGLVQAGGSLRLSSAASGFIFSTYAMGWYRQAPGKEREFVAAITRTGTRTYYADSVKGRFTISRDNAKNTVYLQMTSLKPEDTAVYYCAARAGVEAYGSRYGYWGQGTQGTVSS | high polyreactivity |
| QVQLVESGGRLVQAGGSLRLSCAASGRTFWFNDMGWYRQAPGKVRQLVAAISDTDGSTYYADSVKGRFTISRDNAKNSVYLQMNSLKPVDTAVYYCAPEAYYGYLYAYDYWGQGTQVTVSS | low polyreactivity |
| QVQLVESGGRLVQSGGSLRLSCAPSGSIFLRNAMGWYRQAPGKEREFVASITWNGASTSYADSVKGRFTISRDYAMNTVYLQMNSLKPEDTAVYFCAAVTVQDSNLKYGYWGQGTQVTVSS | low polyreactivity |
| QVQLVESGGGLVQAGGSLRLSCAASGFIFAINAMGWYRQAPGKEREFVAAISSDGASTYYADSVKGRFTISRDNAKNTVYFQMNSLKPEDTAVYYCNAVPYEWTYPYEYYYWGQGTQVTVSS | low polyreactivity |
| QVQLEESGGGLVQAGGSLRLSCAASGITFVTYAMGWYRQAPGKERELVAAISRSGGRTYYADSVKGRFTISRDNAKNTVYLQMNSLKPEDTAVYYCAAERKNKYDYWGQGTQVTVSS | high polyreactivity |
| QVHLVESAGGLVQAGGSLRLSCDASGFIFPRYDMGSYRQAPGKEREMVAAISRRGGSTNYADSVKGRFTISRDNAKNTVYLQMNSLKPEATAVYYCNADTTGYSSYGYDYWGQGSQVTVSS | high polyreactivity |
| QVQLVESGGGLVQAGGSLRLSCAASGFISVSNAMGWYRQAPGKERELVAAIRGSGGSTYYADSVKGRFTISRDNAKNTVYLQMNSLKPEDTAVYYCAATAYPRGSPPYNYWGQGTQVTVSS | high polyreactivity |

Reference: the nanobody polyreactivity screen of Harvey et al. (2022)
